Sequences and labels used below:
B1: GAL4 DNA binding domain fusion of the cytoplasmic domain of CD28 (receptor, UniProt P04386 1-147, looked up)
chain: MKLLSSIEQACDICRLKKLKCSKEKPKCAKCLKNNWECRYSPKTKRSPLTRAHLTEVESRLERLEQLFLLIFPREDLDMILKMDSLQDIKALLTGLFVQDNVNKDAVTDRLASVETDMPLTLRQHRISATSSSEESSNKGQRQLTVSRSKRSRLLHSDYMNMTPRRPGPTRKHYQPYAPPRDFAAYRS
notes: also called CD28 (yeast bait)
B2: GAL4 activation domain-FADD fusion protein (GAL4ad-FADD) (other, not shown: large carriers)
chain: MDPFLVLLHSVSSSLSSSELTELKFLCLGRVGKRKLERVQSGLDLFSMLLEQNDLEPGHTELLRELLASLRRHDLLRRVDDFEAGAAAGAAPGEEDLCAAFNVICDNVGKDWRRLARQLKVSDTKIDSIEDRYPRNLTERVRESLRIWKNTEKENATVAHLVGALRSCQMNLVADLVQEVQQARDLQNRSGAMSPMSWNSDASTSEAS

The target of assay [1] is B2. Briefly: yeast two-hybrid, β-galactosidase filter assay. The text has this: (§1) The following yeast two-hybrid system was used and constructed as follows. The cytoplasmic domains of Fas, Fas-FD8, TNRF-1, Δ-TNFR-1, CD40, and CD28 were obtained by PCR and cloned in-frame, as confirmed by sequencing, into the GAL4 DNA binding domain (GAL4bd) vector pAS1CYH2. Full-length A20 and B94 were similarly cloned into the bait vector. GAL4bd-Fas was cotransformed with a prey plasmid containing a human B-cell cDNA expression library fused to the GAL4 activation domain (GAL4ad) in the pACT plasmid. A more detailed account of the plasmids used in the procedure for the yeast two-hybrid system can be found in Hu et al. (1994) *J. Biol. Chem.* 269:30069-30072.
(§2) The yeast two-hybrid system was used to screen for proteins that interact with the cytoplasmic domain of Fas. An expression vector was constructed by fusing the GAL4 DNA-binding domain to the cytoplasmic tail of the human Fas antigen (GAL4bd-Fas). This bait plasmid was cotransformed in yeast with a prey plasmid containing a human B-cell cDNA expression library fused to the GAL4-activation domain. Seventeen positive clones were obtained from 2 ×10^6 transformants screened. To determine the specificity of interaction, plasmids containing the activation domain fusion proteins were recovered from the putative positive clones and cotransformed with GAL4bd-Fas and control heterologous baits.

In assay [2] the target is T1, GAL4 DNA binding domain fusion of full-length B94 (UniProt P04386 1-147; Q03169 1-654).
T1 construct: also called B94 (yeast bait)
Briefly: yeast two-hybrid, β-galactosidase filter assay.
Text: as §1, §2

For assay [3], the target named is T2, GAL4 DNA binding domain fusion of full-length A20 (UniProt P04386 1-147; P21580 1-790).
T2 construct: also called A20 (yeast bait)
The assay can be described thus: yeast two-hybrid, β-galactosidase filter assay.
Text: as §1, §2

The target of assay [4] is T3, GAL4 DNA binding domain fusion of the cytoplasmic domain of CD40 (UniProt P04386 1-147; P25942 216-277, limits assumed).
T3 construct: also called CD40 (yeast bait)
Briefly: yeast two-hybrid, β-galactosidase filter assay.
Text: as §1, §2

Assay [5] has as its target T1, GAL4 DNA binding domain fusion of …. The assay can be described thus: yeast two-hybrid.
Text: as §1, §2

For assay [6], the target named is T2, GAL4 DNA binding domain fusion of …. Briefly: yeast two-hybrid.
Text: as §1, §2

Assay [7] deals with T3, GAL4 DNA binding domain fusion of the …. Briefly: yeast two-hybrid.
Text: as §1, §2

Assay [8] deals with B1. The assay can be described thus: yeast two-hybrid.
Text: as §1, §2

The target in assay [9] is T4, GST (UniProt P08515 1-218 = GST).
T4 construct: Control protein on glutathione beads
The assay can be described thus: GST pull-down from lysates of transfected 293T cells. Here is the method: (§3) Detergent lysates were prepared and incubated with various GST fusion proteins immobilized on glutathione-Sepharose beads. The samples were analyzed by SDS-PAGE and autoradiography (upper panel). The respective GST fusion proteins are shown as in FIG. 4B (middle panel).

The target of assay [10] is T5, GST-Fas (GST fusion protein containing the cytoplasmic domain of Fas) (UniProt P25445 191-335).
T5 construct: domain: cytoplasmic domain; Made in E. coli BL21(DE3)pLysS and immobilized on glutathione beads; not shown: glutathione S-transferase of vector pGSTag
T5 sequence (looked up): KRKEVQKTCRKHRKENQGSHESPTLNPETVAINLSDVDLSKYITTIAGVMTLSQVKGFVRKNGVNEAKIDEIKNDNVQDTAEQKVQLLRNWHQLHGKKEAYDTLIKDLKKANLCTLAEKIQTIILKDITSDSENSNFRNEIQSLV
The description is as above. The protocol:
as §3

The target in assay [11] is T4, GST. The assay can be described thus: GST pull-down of 35S-labeled in vitro translated FADD, SDS-PAGE and autoradiography.
Assay [12] concerns the target T6, cytoplasmic domain of Fas (UniProt P25445 191-335, limits assumed).
T6 construct: domain: cytoplasmic domain
T6 sequence (looked up): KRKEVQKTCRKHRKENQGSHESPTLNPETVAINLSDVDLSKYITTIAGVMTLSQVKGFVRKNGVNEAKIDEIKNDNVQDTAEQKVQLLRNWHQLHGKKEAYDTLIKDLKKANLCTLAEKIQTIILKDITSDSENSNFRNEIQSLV
Briefly: not described.

In assay [13] the target is GAL4 DNA-binding domain fused to the cytoplasmic tail of the human Fas antigen (GAL4bd-Fas) (human, UniProt P04386 1-147; P25445 191-335, limits assumed). Briefly: yeast two-hybrid.
Text: as §1, §2

T4 sequence (P08515 whole entry): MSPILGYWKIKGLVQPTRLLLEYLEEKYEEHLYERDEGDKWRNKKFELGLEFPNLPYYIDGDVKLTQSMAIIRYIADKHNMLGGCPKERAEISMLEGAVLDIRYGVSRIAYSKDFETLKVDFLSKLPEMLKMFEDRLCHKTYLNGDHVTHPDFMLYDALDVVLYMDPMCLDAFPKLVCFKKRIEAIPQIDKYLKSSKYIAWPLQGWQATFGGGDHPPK

On to B1, for which the binding result in [1] was “no binding”.

Regarding B2, the binding result in assay [2], in assay [3] and in assay [4] was “no binding” throughout.

B3: clone 15 (GAL4 activation domain fusion isolated in the yeast two-hybrid screen) (other, not shown: large carriers)
chain: KFLCLGRVGKRKLERVQSGLDLFSMLLEQNDLEPGHTELLRELLASLRRHDLLRRVDDFEAGAAAGAAPGEEDLCAAFNVICDNVGKDWRRLARQLKVSDTKIDSIEDRYPRNLTERVRESLRIWKNTEKENATVAHLVGALRSCQMNLVADLVQEVQQARDLQNRSGAMSPMSWNSDASTSEAS
notes: also called GAL4ad-FADD (clone 15)
As for B3, the binding result in [5], in [6], in assay [7] and in assay [8] was “no binding” in each case.

B4: AU1-epitope tagged FADD (AU1-FADD) (other)
chain: DTYRYIMDPFLVLLHSVSSSLSSSELTELKFLCLGRVGKRKLERVQSGLDLFSMLLEQNDLEPGHTELLRELLASLRRHDLLRRVDDFEAGAAAGAAPGEEDLCAAFNVICDNVGKDWRRLARQLKVSDTKIDSIEDRYPRNLTERVRESLRIWKNTEKENATVAHLVGALRSCQMNLVADLVQEVQQARDLQNRSGAMSPMSWNSDASTSEAS
modifications: 35S-methionine/cysteine metabolic label
notes: the tag is placed N-terminal by the name only
For the molecule B4, the binding result in [9] was “no binding”.

B5: AU1-FADDmt (other)
chain: DTYRYIMDPFLVLLHSVSSSLSSSELTELKFLCLGRVGKRKLERVQSGLDLFSMLLEQNDLEPGHTELLRELLASLRRHDLLRRVDDFEAGAAAGAAPGEEDLCAAFNVICDNVGKDWRRLARQLKNSDTKIDSIEDRYPRNLTERVRESLRIWKNTEKENATVAHLVGALRSCQMNLVADLVQEVQQARDLQNRSGAMSPMSWNSDASTSEAS
modifications: 35S-methionine/cysteine metabolic label
notes: also called point mutant of FADD
Regarding B5, the binding result in [10] and in [9] was “no binding” each time.

B6: HA-epitope tagged FADD (HA-FADD) (other)
chain: YPYDVPDYAMDPFLVLLHSVSSSLSSSELTELKFLCLGRVGKRKLERVQSGLDLFSMLLEQNDLEPGHTELLRELLASLRRHDLLRRVDDFEAGAAAGAAPGEEDLCAAFNVICDNVGKDWRRLARQLKVSDTKIDSIEDRYPRNLTERVRESLRIWKNTEKENATVAHLVGALRSCQMNLVADLVQEVQQARDLQNRSGAMSPMSWNSDASTSEAS
modifications: 35S-methionine/cysteine metabolic or in vitro translation label
notes: also called in vitro translated FADD; 35S-labeled FADD
B6: the binding result in assay [11] is listed as “no binding”.

B7: N-FADD (other)
chain: DTYRYIMDPFLVLLHSVSSSLSSSELTELKFLCLGRVGKRKLERVQSGLDLFSMLLEQNDLEPGHTELLRELLASLRRHDLLRRVDDFEAGAAAGAAPGEEDLCAAFNVICDNVGKDWRRLAR
notes: the AU1-tagged form is the one made for the cell death assays; also called AU1-N-FADD
Regarding B7, the binding result in [12] is given as “no binding”.

B8: clone 8 (GAL4 activation domain fusion isolated in the yeast two-hybrid screen) (other, not shown: large carriers)
chain: SGLDLFSMLLEQNDLEPGHTELLRELLASLRRHDLLRRVDDFEAGAAAGAAPGEEDLCAAFNVICDNVGKDWRRLARQLKVSDTKIDSIEDRYPRNLTERVRESLRIWKNTEKENATVAHLVGALRSCQMNLVADLVQEVQQARDLQNRSGAMSPMSWNSDASTSEAS
Turning to B8, the binding result in assay [13] is “binds”; in assay [5], “no binding”; in [6], “no binding”; in [7], “no binding”; in [8], “no binding”.

The values are drawn from US7807783 (REGENTS OF THE UNIVERSITY OF MICHIGAN, dated 2010).
